This is an account of results in patent publication US20250263482A1.

The target in the assay is human CLDN18.2 expressed on cells (human). As to the kind of experiment: cell-based or functional assay.

For Human IgG1 isotype antibody, the ADCC on KATOIII CLDN18.2 cells, LDH: max (% cytotoxity), run A was 0.3%; the ADCC on KATOIII CLDN18.2 cells, LDH: max (% cytotoxity), run B was -5.51%; the ADCC on KATOIII CLDN18.2 cells, LDH: max (% cytotoxity), run C was -7.64%; the ADCC on NCI-N87 CLDN18.2 cells, LDH: max (% cytotoxity), run A was -6.73%. Further, the ADCC on NCI-N87 CLDN18.2 cells, LDH: max (% cytotoxity), run B is -11.7%; the ADCC on NCI-N87 CLDN18.2 cells, LDH: max (% cytotoxity), run C is -9.22%; the CDC on CT26 CLDN18.2 cells, LDH: max (% cytotoxity), run A was found to be 10.8%; the CDC on CT26 CLDN18.2 cells, LDH: max (% cytotoxity), run B is -0.23%. Further, the CDC on CT26 CLDN18.2 cells, LDH: max (% cytotoxity), run C was -0.38%; the CDC on KATOIII CLDN18.2 cells, LDH: max (% cytotoxity), run A is -0.85%; the CDC on KATOIII CLDN18.2 cells, LDH: max (% cytotoxity), run B is -2.46%; the CDC on KATOIII CLDN18.2 cells, LDH: max (% cytotoxity), run C is -1.53%.
